Results on 41 sequences are retold here after the nanobody polyreactivity screen of Harvey et al. (2022).

The data set can be described thus: yeast display, Sf9 membrane polyspecificity reagent, FACS + sequencing; frameworks hold sequencing errors. A digest of the protocol: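 Galactose induction of a Saccharomyces cerevisiae BJ5465 synthetic nanobody display library ran 36–48 hours. The cells were then stained for 1 hour at 4 °C with 10% biotinylated, detergent-solubilized Sf9 membrane reagent, pulled down on streptavidin microbeads and FACS-sorted into low and high (top ~1%) gates on expression and reagent-binding fluorescence. Labels for polyreactivity follow the gate of origin.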
In the case of “QLQREESGGGLVQAGGSLRLSCAASGRTFTRYAMGWYRQAPVKERELVAAISGGGGSTYYADSVKGRFTISRDNAKITVYLQINSLKPEDTAVYYCNAAARVYSFDYWGQGTQVTVSS”, the “polyreactivity (PSR sort gate)” value is “low polyreactivity”. The same measure for “QLQREESGGGLVQAGGSLRLSCAASGSTFEKNAMGWYRQAPAKERELVAALSNGVSTYDADSVKGRFPISRDNAKNSVYLLMNSLKPEDTAVYYCAADLFFGAETVYYAKFDYWGQGTQVTVSS”: “low polyreactivity”.

As for “QQQLVESDVGLDQAGRSHRLSCAASGFIFAPNAMGWYRQAPGKERELVAAITYRGGGTYYADSVKGRFTISRDNAKNTVYLQMNSLKPEDTAVYYCAAGYDSYYRGSYNYWGQGTQVTVSS”, the “polyreactivity (PSR sort gate)” value is “high polyreactivity”. The same measure for “QVCLQESGGGLVQACGSLRLSCAASGTISRDIFMGWYRQAPGKEREFVATIAQGGITNYADSVKGRFTISRDNAKNTVYLQMNSVKPGDTAVYYCAARDGNCYWFYYWGQGTQVTVSS”: “high polyreactivity”.

“QVEHVESGGGLVQAGGSLRLSCAASGITFAAYAMGWYRQARGTERELVAAISTSGDSTYYADSVKGRFTISRDYAKITVYLQMNSLKPADTAVYYCNDRRYGYGVGRGLYIYDYCGQGTQVTVSS”: the “polyreactivity (PSR sort gate)” value is “high polyreactivity”.

On to “QVELVESAGGLVQAGGSLRLICAASGLTFDAYAMGWYRQAPGKERELVAAISSGGNTYYADSVKWRFTISRDNAKNTVYLQMNSLKPEDTAVYYCAATFIQVVVNVQLYDYDYWGQGTQVTVSS”, for which the “polyreactivity (PSR sort gate)” value is “low polyreactivity”. Then “QVELVESGGGLVQAGGSLRLSCAASGLTFVSYAMGWYRQAPGKERELVAAISRSGGSTYYADSVKGRFTISLDNAKNTVYLQMNSLKPEDTAVYYCNAYSYVEFWAVYRYDYWGQGTQVTVSS”, with “high polyreactivity”; and “QVHHVESGGGLVQAGGSLRLSCAASGFTFDLYATVLSRQAPRKERELVAAITWRGGSTYYADSVKGRFAISRDNAKNTVYLQMNSLQPEDTAVYYCAADYVIVDDAWLITVEMDSWGQGTQVTVSS”, with “low polyreactivity”; and “QVHHVESGGGLVQAGGSLRLSCADSGSIFTYYAMGWYRQAPGKERDLVAAINSGGRTNYADSVKGRFTISRDNAKNTVYLQMNSLKPVDTAVYYCANYGVLQYGYWGQGTQVTVSS”, with “low polyreactivity”. The same measure for “QVHHVESVGGLVQAGGILRLSSAASGRTFDRYAMGWYRQEPGKERELVAAISSGGSTYYADSVKGRFTISRDNAKNTVYLQMNSLKPEDTADYYCNAGKTFDFRDGVGYDHWGQGTQVTVSS”: “low polyreactivity”; for “QVHIVESGGGLDQAGGSLRLSCAASGSIFYRNAMGWYRQAPGKEREMVAAISSDGSTNYADSVKGRFTISRDNAKNTVYLQMNSLKQEDTAVYFCAAQWTQILDYWGQGTQVNVSS”: “low polyreactivity”; for “QVHLEESGGGIVQAGGSLRLSCAASGSNFGYNAMGWYRQAPGKEREFVARISSRDDRTSYADSVKGRFTISRDNAKNTVYLQMNSLKPEDTAVYYFAAVRFFLTRAWRPLNYWGQGTIVTVSS”: “high polyreactivity”. The same measure for “QVHLEESGGGLVQAGGSLRLRSAATGRIFKRYAMGWYIQAPGKERDLVAAINWSTGGTYYADSVKGRFTISRDNAKNSVYLHMNSLKPVDTAVYSCAADGDAWFEYLDVEYYYWGQGTQVTVSS”: “low polyreactivity”; for “QVHLEESGGRLVQAGGSLRLSCSDSGRIIPRNVMGLYRQAPGKERELVAAISSRGTRTYYADSVKGRFTISRDNAKNTVFLQMNSLKPEDTAVYYCAADGPYDGYDFWGQGTQVTVSS”: “high polyreactivity”.

Take “QVHLGESGGGLVQAGGSLRLSCAASGSIFGYYAMGWYRQAPGKERELVAAITFRDGSTYYADSVKGRFTISRDNAKNTVYLQMNSLKPEDTAVYYCAARVTYSRGYRGGSRTKYDYWGQGTQVTVSS”: the “polyreactivity (PSR sort gate)” value is recorded as “low polyreactivity”. Then “QVHLLESGGGLDHAGGSLRLSCAASGRIFRYYFMGWYRQAPGKERELVAAISRGGRTYYADSVKGRFTISRDNAKNTVYLQMNSLKPEDTAVYYCDAVITQTDTGYGPSFRVYYWGQGTKVTVSS”, with “high polyreactivity”; and “QVHLQDSGGGLVKAGGSLRMSCAASGYIFGSGSMGWFRQAPGKERELVATINNGSSTYYADSVKGRFTISRDNAKNNVYLQMNSLKAEATAVYYCAVYLYRLTFFYYWGQGNQVTVSS”, with “high polyreactivity”. Then “QVHLQESGGGLVQAGGSLRLSCEASGSISRYYDMVWYRQAPGKELEFVAGISGGAITYYADSVKGRFTISRDNAKNTVYLQMNSLKPEDTAVYYCAADTGVYQYHSYWGQGTQVTVSS”, with “low polyreactivity”. The same measure for “QVHLVASGGGLVQAGGSLRLSCAASGRSFYEYAMGRYRQEPGKERELVAGITSGGSTNYADSVKGRFTISRDNAKNTVYLQMTSLKPEDTAVYYCADSYWGYEYDYWGQGTQVTVSS”: “low polyreactivity”; for “QVHLVDSGGGLVQAGASLRLSCSASGSIFYSYAMGWYRPAPGKEWELVAAIRRGGSTNYADSVKGRFTISRDNAKNTVYLQMNSLKPEDTAVYYCAAGRFTYAAQRYEYWGQGTQVTVSS”: “high polyreactivity”. “QVHLVDSGGGLVQAGGSLRLSCAASGFTFWRYTMGWYRQAPGKERELVAAISGGTTTYYADSVKGRFTISRDNAKNTVYLQMNSLKPEDTAVYYCAAYSQRARTYDYWGQGTQVTVSS”: the “polyreactivity (PSR sort gate)” value is given as “high polyreactivity”.

Consider “QVHLVDSGGGLVQAGGSLRLSCATSGRIFGAYAMVWYRQAPGKESELVAAITSRGGNTYYADSVKGRFTISRDNAKNTVYLQMNSLKPEDTAVYYCAAGHDKRRQYYVGQSAFDYWGQGTQLTVSS”, for which the “polyreactivity (PSR sort gate)” value is listed as “low polyreactivity”. Then “QVHLVDSGGGLVQAGGSLRLSCPASGFIFGLYVMGCYRQSPGKERELVAAITTSVGSTYYADSVKGRFTISRDNAKNTVYLQMNSLKPEDTSVYYCAKTSGTIDYDYWGQGTQVTVSS”, with “low polyreactivity”.

Turning to “QVHLVDSGGGLVQAGGSLRLSCPASGLTFPSNSMGCYRQAPGKERELVAAISKRGGRTYYADSVKGRFTISRDNAKNTVYLQMNSLKPEDTAVYYCATLYAYPGTVQYAGYNYWGQGTQVTVSS”, the “polyreactivity (PSR sort gate)” value is “high polyreactivity”.

On to “QVHLVDSGGGLVQAGGSLSLSCAASGIIFLTNAMGWYRQAPGTERELVAAITAIGGSTYYADSVKGSFTISRDTSKYTVYLQMNSLKPEDTAGYYCAADFSYVYYLYDYWGQGTQVTVSS”, for which the “polyreactivity (PSR sort gate)” value is “low polyreactivity”.

Regarding “QVHLVDSGGGLVQAGGSLSLSCAPSGTTFHPYAMGCYRHAPGKEREFVATISGSAGSTYYADSVKGRFKISRDNAKNTVYLQMNSLKPEDTAVYYCNADSGWFGYDYWGQGTQVTVSS”, the “polyreactivity (PSR sort gate)” value is reported as “low polyreactivity”. Then “QVHLVEAGVGLVQAGGSLRVSCAASGFTFCRYAMVWYRQAPGKERELVAAIRYSGSSTYYADSVKGRFTISRDNAKNTVYLQMNSLKPEDTAVYYCAKRYYGNDYWGQGTQVTVSS”, with “high polyreactivity”. As to “QVHLVESAGGLVQAGGSLRLSCDASGRTFYPNAMGWYRQKHGQERELVAGIRSSGESTYYEDSVKGRFTISRDNAKTTVYLQMNSLKQEDTAVYYGIRDLTPSYDFWGQGSQVTVSS”, the “polyreactivity (PSR sort gate)” value is reported as “low polyreactivity”. Then “QVHLVESAGGLVQAGGSLRLTCAASGSTFLFYAMGMYRQAPGKERELVAAISRSGTSTYYADSVKGRFTISRDNAKNTVYLQMNSLKPEDTAVYYCAADDYGGYYYWGQGTQVTVSS”, with “high polyreactivity”; and “QVHLVESGAGLVQAGGSLRISCAASGIIFRLYGLGWYRQAPGKERELVAGINTGGSTSADSVKGRFTISRDNAKNTVYLQMNSLKPEDTAVYYCARDPGYYHPWYRYDYWGQGTQVTVSS”, with “low polyreactivity”; and “QVHLVESGAGLVQAGGSLRLSCAASGGIFWVYAMGWYRQAPGKERELGAAISNSDTSTSYADSVKGRFTISRDNAKNTVYLQMTSLKPEDTAVYYCNADSPSLSGDYWGQGTQVTVSS”, with “low polyreactivity”. For “QVHLVESGGALVQAGGRLRLSCAASGSIFGRNAMGWYRQAPGKERELVAVISKRSGNTYYADSVKGRFTISRDNAKNTVYLQMNSLKPEHTAVYYCNAVDQKLLRYDYWGQGTEVTVSS”, the “polyreactivity (PSR sort gate)” value was “high polyreactivity”. The same measure for “QVHLVESGGALVQAGGSLRLSCAASGNTFNANAMGWYRQAPGKERELVAVISANGGRTYYADSVKGRFTISRDNAKNTVYLQMNSLIPEDTAVYYCAADSSGEYPGGYWGQGTQVTVSS”: “low polyreactivity”. The same measure for “QVHLVESGGCLVQAGGSLRLSCAASGFTITYNAMGWYRQAPGKEREFVAAITNNGSTYYADSVKGRFTISRDNAMNTVYFQMNSLKPEDTAVYYCAVDPGYYDEYNYWGQGTHVTVSS”: “low polyreactivity”; for “QVHLVESGGCLVQAGGSLRLSCAASGITFGYYAMGWYRQAPGKERELVAAITTRGGSTSDADSVKGRFTISRDNAKNTVYFQMNSLKPEDNAVYYCAARWRQRKSVRYGQHGYDYWGQGTQVTVSS”: “high polyreactivity”; for “QVHLVESGGCLVQAGGTLRLSCAASGFTYKWYAMGWYRQAPGKERELVATITIGGRTNYADSVKGRFTISRDNAKNTVYLQMNSLKTEETAVYYCATYFVGLRLSDYDYWGQGTQVTVSS”: “low polyreactivity”. Turning to “QVHLVESGGGFFQAGGSLRLSCAASVITFPLYAMGWYRPAPGKERELVSAISRNGGRTYYADSVKGRFTISRDNAKNTVYLQMNSLKPEDTAVYYCAKVSRGSVSSPRDDYWGQGTQVNVSS”, the “polyreactivity (PSR sort gate)” value is “high polyreactivity”. Take “QVHLVESGGGLDQAGGSLRLSCAASGSIFPHNAMVWYIQAPGKERELVASITSRCGITYYADSVKGRFTISRDNAKNTVYLQMNRLKPEDTAVYYCAARNNVEYLTIYKPYSFGSDSWGQGTQVTVSS”: the “polyreactivity (PSR sort gate)” value is “low polyreactivity”. Then “QVHLVESGGGLDQAGGSLRLSSAASGSIFDKYAMVWYRQAPGKERELVAAITSGGRTYYADSVKGRFTISRDNAKNTVYLQMNSLKPEDTAVYYCAAGARRSYYPSQYYYWGQGTQVTVSS”, with “low polyreactivity”; and “QVHLVESGGGLLQAGGSLRLSCAASGITFSRNVMGWYIQAPGKERELVAAISTSGGSTYYADSVKGRFTISRDNAKNTVYLQMNSLKPEDTAGYYCAKDITVTYPGLDYDYWGQGTQVTVSS”, with “low polyreactivity”.

Take “QVHLVESGGGLVEAVGSLRLSCAASGRIFARYAMGCYRQAPGKERQLVATITRVGSTNYADSVKRPFTISRDNAKTTVYLQMNSLKPEDTEGFYCNADIRRNGGYAHEYWVQGTQVTVSS”: the “polyreactivity (PSR sort gate)” value is recorded as “low polyreactivity”.
